{"source": "the supplement of paper PMC12764529", "note": "± gives the half width of the 95% confidence interval."}
{"assay": "folding stability dG unfold from trypsin proteolysis; higher = more stable", "summary_of_the_method": "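Mini-proteins designed to be under 80 residues and free of cysteine were carried in a PA-tagged cDNA display construct and digested with trypsin and with chymotrypsin. Each protease was applied at 11 threefold-diluted concentrations, alongside a no-protease condition, before sequencing. K50 came from Bayesian fitting of the sequencing counts, and unfolding free energy was obtained by comparing it with a sequence-predicted unfolded-state K50 and a shared folded-state K50, for each protease separately or for both together. Designs were retained only if their AlphaFold2 dimer inter-PAE exceeded 15.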", "units": {"folding stability dG unfold": "kcal/mol"}}
{"sequence": "SAGGSAGGSPPVKYRITIEMKDPNGKEHTHTIEIPGMNPDDAKEFLEDIPIPPGIKDVEIEPYSAGGSAGGS [r12_886_TrROS]", "folding stability dG unfold": "-0.0813 ± 0.068"}
{"sequence": "SAGGSAGGSPSVVTLVSPDYYAEAFYFPDFVLVVLYDPEKGPPQVFLVSNENGELKFFPASEASAGGSAGGS [r12_632_TrMRF]", "folding stability dG unfold": "2.28 ± 0.18"}
{"sequence": "SAGGSASPSEVRTITATLPGGVVREFEVKMPPGTTVYIPEEGKTITVPPDSSLPLPPDVSVEVRLESAGGSA [r15_152_JUSTAS]", "folding stability dG unfold": "-0.353 ± 0.017"}
{"sequence": "SKKVEVKEIEIKLADGSKVKAKIVKLPDGTYRIFVEFPDGRVAVFEIDVNGKIVKVKPLEVFSLEELKKKSA [r9_1075_TrROS_Hall]", "folding stability dG unfold": "1.07 ± 0.12"}
{"sequence": "SAGGSAGGSKKKVVIEVVIKVKKEDEEKIKKALEKELEKLGFKVKEVKVERTKNYVKVTVVLESAGGSAGGS [r12_731_TrROS_Hall]", "folding stability dG unfold": "2.7 ± 0.17"}
{"sequence": "SAGDPDRPLGPVEITVDPEENTLTITFGDLTLTLPLPEGVEATAEVFPDHVVLTVRYPDGTIRTFVFPLSAG [r5_21_TrMRF]", "folding stability dG unfold": "4.14 ± 0.13"}
{"sequence": "APKPPVLVVEVVVLFPKEDPEVRELTVEEIAELAAEELTAHPDFKPVKVEVLSAEEHPDGYYTVTLKVTHVS [r1_484_TrMRF]", "folding stability dG unfold": "2.51 ± 0.15"}
{"sequence": "SAGGSPSITVSESSDPATGTRTLTITVPSSAPSATLNIVVSGSGPPVSSKTVTVPPGTTVTITYTTTSAGGS [r16_412_JUSTAS]", "folding stability dG unfold": "2.2 ± 0.06"}
{"sequence": "SAGGSAGGSAGMKVTATSLNPASGTVTVKFSDGTTRTFSSVEALKAAIPEGVPIEIAPAVSAGGSAGGSAGG [r17_295_JUSTAS]", "folding stability dG unfold": "2.46 ± 0.13"}
{"sequence": "SAGGSAGGSGKKRKVEIPIFFSGPPEVADNLAKTLAQELGLPPEDVDIEIKVIPIMPPEQMAESAGGSAGGS [r12_1066_TrROS]", "folding stability dG unfold": "0.477 ± 0.054"}
{"sequence": "SAGGSAMKITYKPPSGETTVHPIPPGLTPEERRALAEELAKALQEKTGDPNVTVEFDPATGEITVASAGGSA [r15_33_JUSTAS]", "folding stability dG unfold": "1.33 ± 0.034"}
{"sequence": "SMKVKIKIEVYKPENKLIVKVYFPEIGKEIVFEFDSLEGLFEKIKKELGLKEENIEIVEVKVKEVDPSELSA [r9_909_TrMRF]", "folding stability dG unfold": "2.21 ± 0.16"}
{"sequence": "SAGGSAGGENNIEVYYVEVKVPDPSIPLSVVLEKLPLPPEFLTVTPVEVKPPDGTVLIAIYRDSSAGGSAGG [r6_955_TrMRF]", "folding stability dG unfold": "0.516 ± 0.02"}
{"sequence": "SAGGSAGGAPPDARVTIEVELKNPDGTPISEEEVIEKLKPLGLEPVEIDVDPETGKVTITVRVLSAGGSAGG [r6_774_JUSTAS]", "folding stability dG unfold": "1.69 ± 0.053"}
{"sequence": "SAGGPDDMKIIEETTIRFPENGMQFNIRIYKLPDNDVFIEAEMIMPNGKPVGRMEARVPNGKPIEIPFSAGG [r13_573_TrROS]", "folding stability dG unfold": "0.854 ± 0.04"}
{"sequence": "SAGKKIEIDMSLEELKKLPGIKKVEVKNGKVYLEVDGKKIEITIRPPKPVLEFKEGMSEEEKKELLKKLSAG [r5_2_TrROS_Hall]", "folding stability dG unfold": "0.911 ± 0.093"}
{"sequence": "SAGGSAGGSAGGSDPVKVTVTFTATVTVTLPDGGTAPVTLTVTVTAELPPGQSVEDFVASAGGSAGGSAGGS [r4_126_TrMRF]", "folding stability dG unfold": "2.6 ± 0.033"}
{"sequence": "SAGGSAGGSAVITTETGGDSTVTTTTSLTGEGGTLTTTTTTTTTDGTTTTTTTTTDTGLSPTSSAGGSAGGS [r12_769_JUSTAS]", "folding stability dG unfold": "2.41 ± 0.062"}
{"sequence": "IVISPSMLRDARRQGIPKELLKKAKNVIIWSSNGNPEWAKELKEWPGVKKIKPVPPGDPDKQKDADHVIHFS [r1_248_TrROS]", "folding stability dG unfold": "-0.554 ± 0.55"}
{"sequence": "SAGGSAGGSAKSFWIDSPEQAEELADELQQKGPNVEPTVERDDNNGWYQLEIPNGKDIVIWGSAGGSAGGSA [r18_154_TrROS]", "folding stability dG unfold": "-0.417 ± 0.2"}
{"sequence": "SAGGSAMKVEIVLKVPGDEMLDIEVDEEFPVVDQTIDKETGIVTVLLEGDPEKAEEIAKEIAEKLGSAGGSA [r15_662_TrMRF]", "folding stability dG unfold": "0.6 ± 0.069"}
{"sequence": "GSEIKAGRARSSDGTGRIRVVLEREDGSSVEFELDLPGLPGDTFYLDLPESLPLKAKETWVYVDDKPYPVTS [r1_70_TrMRF]", "folding stability dG unfold": "0.665 ± 0.054"}
{"sequence": "SAGGSAGGSPWRRIPISSPEQILDWLEEMLPPGFNLTPEMAEQMVDYFLKNFEVDPNGYLWVRSAGGSAGGS [r12_983_TrROS]", "folding stability dG unfold": "2.11 ± 0.051"}
{"sequence": "SAGGSAGGSKVIPITFPKSLSLEQIEDFVRKIAAESGAKVKSVKIVDVDPENNRVTVLVEVEGSAGGSAGGS [r12_168_TrMRF]", "folding stability dG unfold": "3.14 ± 0.042"}
{"sequence": "SAGDLSPSDTVDLEVTPVKVGDKWVHEVRVTVTLPDGSSLRSTLRLPPELGPPRRGRLSVPEFVALVAASAG [r5_831_JUSTAS]", "folding stability dG unfold": "1.85 ± 0.024"}
{"sequence": "SAMKNMTPEEVAKLIEEEIRKLYPNAEVKVEVLDAPEDYLVLKVHVTVIEPEEEGEIREFPFLVVIDLSSAG [r14_187_TrMRF]", "folding stability dG unfold": "3.47 ± 0.15"}
{"sequence": "SAGMTPEEVAEELREKLGLKEVTIERDPAADTLTITVTLPSPGETKTAVVPASALTPEAIRELLLEVLSSAG [r5_896_JUSTAS]", "folding stability dG unfold": "2.77 ± 0.071"}
{"sequence": "SAGHQIVKRLARHMQEQGYPIEVDVTVEPYPDDGWVEITIDIEMQNEDGKWQPIGPITIYIPKEDANKLSAG [r5_413_TrROS]", "folding stability dG unfold": "0.914 ± 0.07"}
{"sequence": "SAGGGALSPEEALGKPVTALVEVGGKPYLATYTLKPTPDGWLLEVTVYDPSTGTPTTRTLDWDDVEFESAGG [r13_289_TrMRF]", "folding stability dG unfold": "1.09 ± 0.025"}
{"sequence": "SAGGSASMTLYRDEEGKPLFHHSPEPTSSVPRVVPVVNEEGDEKLEIEIPADTPLEELEAIIEELLSAGGSA [r15_309_JUSTAS]", "folding stability dG unfold": "0.0733 ± 0.04"}
{"sequence": "SAGGSAGGSAGGKPFKVLSVEPLEIGDKKYLRVRFEDGRVYEFPVSFDFGPDGNNVLPVESAGGSAGGSAGG [r7_931_TrMRF]", "folding stability dG unfold": "1.93 ± 0.041"}
